Test results taken from patent US20160122418A1.

Columns and labels:
[1] = molecular target: F protein of RSV reference strain RSV-A Long (ATCC VR-26) (RSV-A Long (ATCC VR-26)) (UniProt P12568); test: cell-based or functional assay
[2] = molecular target: F protein of RSV reference strain RSV-B (ATCC VR 1580) (RSV-B (ATCC VR 1580)) (UniProt P13843); test: cell-based or functional assay
[3] = molecular target: F protein on intact RSV particles (Example 10, strain or isolate not stated) (RSV, strain not stated); test: competition ELISA; RSV particles pre-incubated with control mAb at 20 µg/mL (the reference); competitor (coating mAb): AR201
[4] = molecular target: F protein on intact RSV particles (Example 10, strain or isolate not stated) (RSV, strain not stated); test: competition ELISA; RSV particles pre-incubated with control mAb at 20 µg/mL (the reference); competitor (coating mAb): palivizumab

Sequence of F protein of RSV reference strain RSV-B (ATCC VR 1580) (RSV-B (ATCC VR 1580)) (P13843 26-574): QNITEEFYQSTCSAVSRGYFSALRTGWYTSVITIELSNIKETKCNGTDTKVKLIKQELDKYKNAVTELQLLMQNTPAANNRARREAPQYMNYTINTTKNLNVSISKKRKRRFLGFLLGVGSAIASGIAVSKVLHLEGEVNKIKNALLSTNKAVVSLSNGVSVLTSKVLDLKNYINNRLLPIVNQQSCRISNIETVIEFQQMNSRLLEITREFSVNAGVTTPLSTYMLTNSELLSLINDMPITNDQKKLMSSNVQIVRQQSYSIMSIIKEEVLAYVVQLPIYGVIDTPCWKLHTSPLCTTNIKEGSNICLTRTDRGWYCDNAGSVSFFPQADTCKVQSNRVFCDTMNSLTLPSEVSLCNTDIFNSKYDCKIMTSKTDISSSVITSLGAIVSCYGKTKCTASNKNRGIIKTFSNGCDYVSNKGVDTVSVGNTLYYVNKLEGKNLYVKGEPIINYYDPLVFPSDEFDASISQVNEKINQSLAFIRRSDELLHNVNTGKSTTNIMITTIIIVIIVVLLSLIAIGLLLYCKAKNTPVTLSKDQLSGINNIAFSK
Sequence of F protein of RSV reference strain RSV-A Long (ATCC VR-26) (RSV-A Long (ATCC VR-26)) (P12568 26-574): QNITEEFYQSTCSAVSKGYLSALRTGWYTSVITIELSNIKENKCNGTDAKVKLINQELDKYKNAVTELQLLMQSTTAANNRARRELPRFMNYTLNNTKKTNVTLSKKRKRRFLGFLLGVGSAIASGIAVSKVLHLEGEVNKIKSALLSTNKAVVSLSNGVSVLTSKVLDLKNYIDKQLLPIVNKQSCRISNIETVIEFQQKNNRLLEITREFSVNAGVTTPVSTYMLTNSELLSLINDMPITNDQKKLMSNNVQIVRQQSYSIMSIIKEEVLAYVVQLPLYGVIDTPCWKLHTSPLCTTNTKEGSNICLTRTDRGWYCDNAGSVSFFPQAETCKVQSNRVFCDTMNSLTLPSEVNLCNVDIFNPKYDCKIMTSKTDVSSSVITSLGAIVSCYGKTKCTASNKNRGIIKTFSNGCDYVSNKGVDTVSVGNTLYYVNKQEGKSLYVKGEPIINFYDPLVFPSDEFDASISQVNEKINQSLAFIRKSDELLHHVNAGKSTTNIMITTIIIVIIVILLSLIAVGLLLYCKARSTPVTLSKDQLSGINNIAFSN

Substance	Estimated half-maximal effective antibody concentration (ng/mL), plaque neutralization on Vero cells [1]	Estimated half-maximal effective antibody concentration (ng/mL), plaque neutralization on Vero cells [2]	% binding of RSV to the coating mAb relative to control IgG [3]	% binding of RSV to the coating mAb relative to control IgG [4]
palivizumab (antibody)	100 ng/mL	200 ng/mL	–	–
unrelated fully human monoclonal IgG1 antibody (control)	> 1000 ng/mL	> 1000 ng/mL	100%	100%
